Molecular target: T1, FANCI (human, UniProt Q9NVI1 1-1328)
T1 construct: human FANCI
T1 sequence (looked up): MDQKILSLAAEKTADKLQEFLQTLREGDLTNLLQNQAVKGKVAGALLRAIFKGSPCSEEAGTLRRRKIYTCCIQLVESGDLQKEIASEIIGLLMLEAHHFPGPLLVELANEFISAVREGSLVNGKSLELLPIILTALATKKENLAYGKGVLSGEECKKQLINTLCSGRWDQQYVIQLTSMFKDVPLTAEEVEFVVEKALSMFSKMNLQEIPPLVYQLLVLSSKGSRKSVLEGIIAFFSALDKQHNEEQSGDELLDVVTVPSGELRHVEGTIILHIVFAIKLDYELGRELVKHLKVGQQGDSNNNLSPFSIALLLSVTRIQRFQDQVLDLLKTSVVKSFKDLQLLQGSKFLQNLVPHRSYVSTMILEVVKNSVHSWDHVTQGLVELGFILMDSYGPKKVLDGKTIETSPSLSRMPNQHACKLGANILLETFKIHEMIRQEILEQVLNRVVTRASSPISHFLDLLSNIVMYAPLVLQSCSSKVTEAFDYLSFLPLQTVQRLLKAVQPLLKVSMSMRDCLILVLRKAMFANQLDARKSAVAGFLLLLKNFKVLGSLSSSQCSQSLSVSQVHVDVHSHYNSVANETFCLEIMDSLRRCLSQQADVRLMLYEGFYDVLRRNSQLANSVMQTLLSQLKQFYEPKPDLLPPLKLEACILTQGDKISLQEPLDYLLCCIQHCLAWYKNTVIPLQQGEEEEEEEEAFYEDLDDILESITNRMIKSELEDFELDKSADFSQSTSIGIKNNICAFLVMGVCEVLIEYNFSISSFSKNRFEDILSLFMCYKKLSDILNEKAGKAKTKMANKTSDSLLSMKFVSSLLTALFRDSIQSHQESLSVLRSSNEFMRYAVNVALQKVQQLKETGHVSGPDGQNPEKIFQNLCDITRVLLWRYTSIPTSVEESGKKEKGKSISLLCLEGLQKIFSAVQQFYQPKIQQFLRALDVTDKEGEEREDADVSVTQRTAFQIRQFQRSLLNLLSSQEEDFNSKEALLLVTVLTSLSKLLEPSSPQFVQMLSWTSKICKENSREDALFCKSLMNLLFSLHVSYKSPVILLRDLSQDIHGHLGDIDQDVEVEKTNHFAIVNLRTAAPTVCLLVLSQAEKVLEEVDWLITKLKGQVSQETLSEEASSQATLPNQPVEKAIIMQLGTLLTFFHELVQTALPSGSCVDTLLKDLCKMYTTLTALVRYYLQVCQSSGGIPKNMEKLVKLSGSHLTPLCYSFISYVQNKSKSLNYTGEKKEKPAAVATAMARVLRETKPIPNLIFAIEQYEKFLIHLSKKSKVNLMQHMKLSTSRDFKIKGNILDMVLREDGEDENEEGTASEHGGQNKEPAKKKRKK
Experiment: pull-down; same procedure as for RAD51AP1, but Strep-Tactin resin captured the complexes via the Strep tag on UAF1; USP1 or FANCI as the other protein; SDS-PAGE, Coomassie Blue
Details: both partners purified

B1: UAF1 (natural protein)
chain: not shown
notes: human UAF1 (isoform 1), full-length; also called UAF1 (WT); UAF1 (FL); not shown: Strep-II, C-terminal, kept
**Q.** Does B1 bind?
**A.** binds
